Measured values taken from article PMC4157633 (Laboratory investigation; a journal of technical methods …, 2014).

B1: human carcinoembryonic antigen (hCEA) protein, purified (natural protein, UniProt P06731 35-685, looked up)
chain: KLTIESTPFNVAEGKEVLLLVHNLPQHLFGYSWYKGERVDGNRQIIGYVIGTQQATPGPAYSGREIIYPNASLLIQNIIQNDTGFYTLHVIKSDLVNEEATGQFRVYPELPKPSISSNNSKPVEDKDAVAFTCEPETQDATYLWWVNNQSLPVSPRLQLSNGNRTLTLFNVTRNDTASYKCETQNPVSARRSDSVILNVLYGPDAPTISPLNTSYRSGENLNLSCHAASNPPAQYSWFVNGTFQQSTQELFIPNITVNNSGSYTCQAHNSDTGLNRTTVTTITVYAEPPKPFITSNNSNPVEDEDAVALTCEPEIQNTTYLWWVNNQSLPVSPRLQLSNDNRTLTLLSVTRNDVGPYECGIQNELSVDHSDPVILNVLYGPDDPTISPSYTYYRPGVNLSLSCHAASNPPAQYSWLIDGNIQQHTQELFISNITEKNSGLYTCQANNSASGHSRTTVKTITVSAELPKPSISSNNSKPVEDKDAVAFTCEPEAQNTTYLWWVNGQSLPVSPRLQLSNGNRTLTLFNVTRNDARAYVCGIQNSVSANRSDPVTLDVLYGPDTPIISPPDSSYLSGANLNLSCHSASNPSPQYSWRINGIPQQHTQVLFIAKITPNNNGTYACFVSNLATGRNNSIVKSITVSASGTSPGLSA

Tests used:
[1] = target: B1; test: ELISA
[2] = target: anti-EGFR VHH122-fiber-fibritin chimera displayed on the AdVHH122Luc vector (human adenovirus serotype 5 | …); test: ELISA

| Binder | EC50 [1] [nM] | binding result [2] |
| --- | --- | --- |
| anti-hCEA VHH JJB-B2, thioredoxin fusion protein (VHH) VHH: QVQLVETGGGLVQPGGSLRLSCAASESIFSTYAMGWYRQAPGKQRELVAAITTNDIANYADSVKGRFTISRDNAKNTVYLQMNSLNPEDTAVYYCNAIFPPYNYWGQGTQVTVSS | ~0.2 | – |
| B1 | – | no binding |
| anti-hCEA VHH JJB-B5, thioredoxin fusion protein (VHH) VHH: QVQLVETGGGLVQPGGSLRPSCTASGSIFSIYAMGWYRQASGKQRELVALITRDEVFNYADSVKGRFTISRDNAKDTVYLQMNSLKPEDTAVYYCWVETVNDHYNSGVEDYWGQGTQVTVSS | ~50 | – |
| anti-hCEA VHH JJB-A3, thioredoxin fusion protein (VHH) VHH: QVQLVETGGGLVQPGGSLRLSCAASGRISDINAMGWYRQAPGKQRELVAAITSVGSNYVDSVKGRFTISKDNAKNTVYLQMYSLNPEDTAVYYCNTQCGTWLVCDGRDQWGKGTLVTVSS | ~0.15 | – |
| anti-hCEA VHH JJB-D1, thioredoxin fusion protein (VHH) VHH: QVQLVESGGLVQAGGSLRPSCAASGSIFLQNAMGWYRQVPGKQRELVAAITSVDSTNYADSVKGRFTISRDNAKNTVYLQMNSLKPEDTAVYYCNAPWNSDYHWGKGTLVTVSS | ~1 | – |
